# Experiments:
# Assay in all cases: flow cytometry, HEK293-T, alanine scan
# human CD33 A272S (human) = human CD33 A272S (human) (UniProt P20138)
# human CD33 A289S (human) = human CD33 A289S (human) (UniProt P20138)
# human CD33 A290S (human) = human CD33 A290S (human) (UniProt P20138)
# human CD33 A293S (human) = human CD33 A293S (human) (UniProt P20138)
# human CD33 A328S (human) = human CD33 A328S (human) (UniProt P20138)
# human CD33 A329S (human) = human CD33 A329S (human) (UniProt P20138)
# human CD33 A341S (human) = human CD33 A341S (human) (UniProt P20138)
# human CD33 C325A (human) = human CD33 C325A (human) (UniProt P20138)
# human CD33 E333A (human) = human CD33 E333A (human) (UniProt P20138)
# human CD33 F279A (human) = human CD33 F279A (human) (UniProt P20138)
# human CD33 F280A (human) = human CD33 F280A (human) (UniProt P20138)
# human CD33 G295A (human) = human CD33 G295A (human) (UniProt P20138)
# human CD33 G304A (human) = human CD33 G304A (human) (UniProt P20138)
# human CD33 G327A (human) = human CD33 G327A (human) (UniProt P20138)
# human CD33 H285A (human) = human CD33 H285A (human) (UniProt P20138)
# human CD33 I278A (human) = human CD33 I278A (human) (UniProt P20138)
# human CD33 K288A (human) = human CD33 K288A (human) (UniProt P20138)
# human CD33 K309A (human) = human CD33 K309A (human) (UniProt P20138)
# human CD33 K313A (human) = human CD33 K313A (human) (UniProt P20138)
# human CD33 L271A (human) = human CD33 L271A (human) (UniProt P20138)
# human CD33 L273A (human) = human CD33 L273A (human) (UniProt P20138)
# human CD33 L275A (human) = human CD33 L275A (human) (UniProt P20138)
# human CD33 L277A (human) = human CD33 L277A (human) (UniProt P20138)
# human CD33 L316A (human) = human CD33 L316A (human) (UniProt P20138)
# human CD33 L338A (human) = human CD33 L338A (human) (UniProt P20138)
# human CD33 L343A (human) = human CD33 L343A (human) (UniProt P20138)
# human CD33 N297A (human) = human CD33 N297A (human) (UniProt P20138)
# human CD33 N344A (human) = human CD33 N344A (human) (UniProt P20138)
# human CD33 P301A (human) = human CD33 P301A (human) (UniProt P20138)
# human CD33 P319A (human) = human CD33 P319A (human) (UniProt P20138)
# human CD33 P330A (human) = human CD33 P330A (human) (UniProt P20138)
# human CD33 Q311A (human) = human CD33 Q311A (human) (UniProt P20138)
# human CD33 R286A (human) = human CD33 R286A (human) (UniProt P20138)
# human CD33 R287A (human) = human CD33 R287A (human) (UniProt P20138)
# human CD33 R291A (human) = human CD33 R291A (human) (UniProt P20138)
# human CD33 R296A (human) = human CD33 R296A (human) (UniProt P20138)
# human CD33 S307A (human) = human CD33 S307A (human) (UniProt P20138)
# human CD33 S314A (human) = human CD33 S314A (human) (UniProt P20138)
# human CD33 S326A (human) = human CD33 S326A (human) (UniProt P20138)
# human CD33 T284A (human) = human CD33 T284A (human) (UniProt P20138)
# human CD33 T292A (human) = human CD33 T292A (human) (UniProt P20138)
# human CD33 T302A (human) = human CD33 T302A (human) (UniProt P20138)
# human CD33 T320A (human) = human CD33 T320A (human) (UniProt P20138)
# human CD33 V282A (human) = human CD33 V282A (human) (UniProt P20138)
# human CD33 V294A (human) = human CD33 V294A (human) (UniProt P20138)
# human CD33 V332A (human) = human CD33 V332A (human) (UniProt P20138)
# Sequence of human CD33 V332A (human) (P20138 18-364 V332A limits assumed): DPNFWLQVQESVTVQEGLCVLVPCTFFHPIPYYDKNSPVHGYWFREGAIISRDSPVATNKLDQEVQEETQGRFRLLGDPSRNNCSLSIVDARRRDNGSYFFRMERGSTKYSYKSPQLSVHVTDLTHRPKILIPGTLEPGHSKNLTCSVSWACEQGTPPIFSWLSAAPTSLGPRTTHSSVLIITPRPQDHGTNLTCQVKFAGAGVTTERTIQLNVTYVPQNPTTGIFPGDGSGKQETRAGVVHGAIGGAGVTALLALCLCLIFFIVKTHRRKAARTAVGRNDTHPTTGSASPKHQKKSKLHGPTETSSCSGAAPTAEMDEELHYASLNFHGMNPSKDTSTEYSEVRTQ
# Sequence of human CD33 G295A (human) (P20138 18-364 G295A limits assumed): as the sequence (P20138 18-364 V332A limits assumed) above, with G278A, A315V counted along it
# Sequence of human CD33 G304A (human) (P20138 18-364 G304A limits assumed): as the sequence (P20138 18-364 V332A limits assumed) above, with G287A, A315V counted along it
# Sequence of human CD33 H285A (human) (P20138 18-364 H285A limits assumed): as the sequence (P20138 18-364 V332A limits assumed) above, with H268A, A315V counted along it
# Sequence of human CD33 P301A (human) (P20138 18-364 P301A limits assumed): as the sequence (P20138 18-364 V332A limits assumed) above, with P284A, A315V counted along it
# Sequence of human CD33 A341S (human) (P20138 18-364 A341S limits assumed): as the sequence (P20138 18-364 V332A limits assumed) above, with A315V, A324S counted along it
# Sequence of human CD33 V294A (human) (P20138 18-364 V294A limits assumed): as the sequence (P20138 18-364 V332A limits assumed) above, with V277A, A315V counted along it
# Sequence of human CD33 T320A (human) (P20138 18-364 T320A limits assumed): as the sequence (P20138 18-364 V332A limits assumed) above, with T303A, A315V counted along it
# Sequence of human CD33 V282A (human) (P20138 18-364 V282A limits assumed): as the sequence (P20138 18-364 V332A limits assumed) above, with V265A, A315V counted along it
# Sequence of human CD33 S314A (human) (P20138 18-364 S314A limits assumed): as the sequence (P20138 18-364 V332A limits assumed) above, with S297A, A315V counted along it
# Sequence of human CD33 L277A (human) (P20138 18-364 L277A limits assumed): as the sequence (P20138 18-364 V332A limits assumed) above, with L260A, A315V counted along it
# Sequence of human CD33 R296A (human) (P20138 18-364 R296A limits assumed): as the sequence (P20138 18-364 V332A limits assumed) above, with R279A, A315V counted along it
# Sequence of human CD33 F280A (human) (P20138 18-364 F280A limits assumed): as the sequence (P20138 18-364 V332A limits assumed) above, with F263A, A315V counted along it
# Sequence of human CD33 R286A (human) (P20138 18-364 R286A limits assumed): as the sequence (P20138 18-364 V332A limits assumed) above, with R269A, A315V counted along it
substance,measurement,setting,value
Refmab #7 (WM53) (antibody),Mean % WT Binding,human CD33 A272S (human),113 % WT binding
same,Mean % WT Binding,human CD33 A289S (human),107 % WT binding
same,Mean % WT Binding,human CD33 A290S (human),98 % WT binding
same,Mean % WT Binding,human CD33 A293S (human),120 % WT binding
same,Mean % WT Binding,human CD33 A328S (human),119 % WT binding
same,Mean % WT Binding,human CD33 A329S (human),120 % WT binding
same,Mean % WT Binding,human CD33 A341S (human),95 % WT binding
same,Mean % WT Binding,human CD33 C325A (human),101 % WT binding
same,Mean % WT Binding,human CD33 E333A (human),91 % WT binding
same,Mean % WT Binding,human CD33 F279A (human),124 % WT binding
same,Mean % WT Binding,human CD33 F280A (human),104 % WT binding
same,Mean % WT Binding,human CD33 G295A (human),115 % WT binding
same,Mean % WT Binding,human CD33 G304A (human),103 % WT binding
same,Mean % WT Binding,human CD33 G327A (human),110 % WT binding
same,Mean % WT Binding,human CD33 H285A (human),109 % WT binding
same,Mean % WT Binding,human CD33 I278A (human),93.2 % WT binding
same,Mean % WT Binding,human CD33 K288A (human),128 % WT binding
same,Mean % WT Binding,human CD33 K309A (human),93.6 % WT binding
same,Mean % WT Binding,human CD33 K313A (human),108 % WT binding
same,Mean % WT Binding,human CD33 L271A (human),113 % WT binding
same,Mean % WT Binding,human CD33 L273A (human),92.5 % WT binding
same,Mean % WT Binding,human CD33 L275A (human),106 % WT binding
same,Mean % WT Binding,human CD33 L277A (human),92 % WT binding
same,Mean % WT Binding,human CD33 L316A (human),103 % WT binding
same,Mean % WT Binding,human CD33 L338A (human),124 % WT binding
same,Mean % WT Binding,human CD33 L343A (human),96.2 % WT binding
same,Mean % WT Binding,human CD33 N297A (human),81.2 % WT binding
same,Mean % WT Binding,human CD33 N344A (human),108 % WT binding
same,Mean % WT Binding,human CD33 P301A (human),99.8 % WT binding
same,Mean % WT Binding,human CD33 P319A (human),114 % WT binding
same,Mean % WT Binding,human CD33 P330A (human),102 % WT binding
same,Mean % WT Binding,human CD33 Q311A (human),93.6 % WT binding
same,Mean % WT Binding,human CD33 R286A (human),134 % WT binding
same,Mean % WT Binding,human CD33 R287A (human),91.1 % WT binding
same,Mean % WT Binding,human CD33 R291A (human),120 % WT binding
same,Mean % WT Binding,human CD33 R296A (human),93.6 % WT binding
same,Mean % WT Binding,human CD33 S307A (human),91.7 % WT binding
same,Mean % WT Binding,human CD33 S314A (human),107 % WT binding
same,Mean % WT Binding,human CD33 S326A (human),103 % WT binding
same,Mean % WT Binding,human CD33 T284A (human),120 % WT binding
same,Mean % WT Binding,human CD33 T292A (human),119 % WT binding
same,Mean % WT Binding,human CD33 T302A (human),113 % WT binding
same,Mean % WT Binding,human CD33 T320A (human),117 % WT binding
same,Mean % WT Binding,human CD33 V282A (human),106 % WT binding
same,Mean % WT Binding,human CD33 V294A (human),126 % WT binding
same,Mean % WT Binding,human CD33 V332A (human),112 % WT binding

# Reference: patent US20260242735A1
